Assay results from the DeepSol protein solubility set.

Assay: soluble on expression in E. coli; label from the status in PepcDB or PDB records

Soluble on expression in E. coli, not soluble:
MAHHHHHHMSDTRDVAQPRRGSFASRKARGETGGSKSSSSSSKNKEHSYDARRYHQNANTHGIHALRTFDCPVCDSKNTIRVTLNPRLGEGTVSCTYCCSLRPAPPDLPYPSVQRFVPSLENRADVFFRFNEQYAALLRQHKSERVGESVDPSSCLATVDNTRKRANKDDGESGGRARGPRGESRDEDGLFGDCALHMDTGLFDNAVDQHVTGTLAMLGSDDDGGSNTVADADPGNPKGVSTPSPPRPDGADMPESDFMNVAVIAGVDEAFAAHAADGVDGMGEADAEEVDVAAFFADSD, MAHHHHHHMSFLPIRVCVLVCSYEGSDSELKEYEGEIVQTPQHYFTEEDSKEFVFTLEFVKKATAYRQIRQLVKSGAFDVFYNQCDGAIDEDKAGVEVVQALESFKVPFTGAISKYYELSKPEMKRMAHYCAVKTAPYAVLEAGDNVRELCAALHFPLIVKHISGYSSVGMDKSCKVYDMDALKERVARFIDQYQSALVEEFISGDEATVLVCADASQPGGIRVFPPVMVQFPEGEDFKHFHLKWETYEGMIWRLVSEDDPALPDIIHIARTAFLHMMGGVGYGRVDVRIDREKNTVVFLEINPNCGIMYPYGQEGSADWILRLTPEFKQKEFAKLQISEAIRIHKCKQPLFRCAYDPVREYYICATRDIPAGSIIFEGEGRLVRLCTKPYVKANWSEVEYNEFLHDAWPVGAEGHYYALWDLESSDWRAVNHSCDPNMGFCPNRSLNVHALRDIAKGEELTMDCRLFMDDTMPPFQCHCKTSICAGWIRGGVMRESHFFESYTERLIHREDKFITQLTRN, MAHHHHHHMSGEVDFWSATIAAYQPLQLTSPELTPKLLKRPPFRFIHDIVCSIDARFAAYDHIIPAELRDSAQVDTKEKKIEYLTTLIQYINRIMKVEIDVNPKKIVSGNEPEKTNIFLQYLAAGVGYAQQDKAAQATPAPQQKSAASLASPASPAAASFSTNPAQDNLSLSLASGLCRKKSSSRDPAERRRSHVSVFDEAAKFNRKLSGYSLNLNLDEQRDVRSEGQSIVRMWNELANPQTETKPSHMPQEALETAIKRQIETVKMVQELLSENDRVIDKLEALVI, MAHHHHHHMSGSVNRSNSFQKADSMDAKETSTVDRKWVALTAYQPVDVVTKTVEVPVIKTVEKFVPKTIIQEKIIHVPKNVTHIVEKIVEVPEVKYIEKIVEVPHIHYKNKYVPKIEVVEKVVERQKIIEKWHDKIVEVPQIKEVVRFKEIEDAEEVIKYIPRNSKNINWEEEYQKYTQRKGQERYSLDNNAYQQKMSSYNDYNEKAYSQNAYSRSLDFMNKQSSSLNNQSNIRSEDFSQINFFNQYIGSAGASYDKQRNSVPTSSFDARGSLQLKRMPSEEAKPVGCCTSACT, MAHHHHHHMSHTFTDPLVDLASVSFQYPHGGGGSAGGIRDVSVRVNGGDRVLVVGHNGSGKSTLLSVIAGRRKASSGRATVLGSDAFDDTRLQQHVTLIGRPWPTEAFFATTVDQVTSQAPLPERKRSVADALHLDLGRAVSNMSSGERRRVQILHGLLQKSFVYLLDECSTDIDIAERMTVLDLVRSECVVGDSCCLYATHIFDGVSDWATHLLLMQGGMVVDFKRVSDLNAPLEVFVCHFLTRRHRGLFDHTSKRTPVKDAYNDDWKGGGTVTALPLEKEAVIVCDRLQYRNIFRNLSFTVYRGDRVLLCGCNGAGKSTLLKMMGGKQFFNNCNGSLRILGKSCYDDMTLNGLVAFGGEWWDTAPPGEMHVHEMLQLQTPRAEWLCKVLGVDLSWDVRHISTGEQKHVQLLLHLLEDKPVILLDEATSDLDLDQRQELLSFLYSESVNRGVTVVYATHIFGGLENWPTAVMMLDRTTQGLHAMWCGSDVKWAEVTRELIALK, MAHHHHHHMSNELLQGAALYKELLCVYHNLAESELGLSGGDVGALFQIKENLSQPISCDIQKCKEILTKLKLVLIHLPSVDPLVPIGKKNINELLLARHILEKGVIISILDRDIKAFSIYMAQLLLYYFDYCNFLPKSGNQNGIIGMYLLYLLSSNLIGDFHMTLEVISIEDQSDEYIKYALELEQHIMDGYFHHVLTKKENIPLYLYSLFIERLYNTIRHKLADCLFASSNCISSEYACELLKLGSEQELCQFIGEYNEAKTSQGECNLLWEVRNKKIYFNNQTVHVQDLPALEVLNNTIGYATELERIV, MAHHHHHHMSNPWNAKLVEELLFRQYEKGEDVSMLLPPPPALSVDQYLKEYEQSTKVLFAYVRNGPANALTPQNINNPRMYGGTPTKGSSSMQRTGNQGGATCATTSSSSACGVDSKAQMQRHPRGLDGSQSAAPSLPLTAGDAAAGQGSMAPPEHIRKRIEWPATVPTNSALKSNSRSRVANLTTKRVAAQERVDPDLIFMQNPEELPLHTIFAKYPKAVESIAALRGGSGDWREDTFTEEEEILYKRELRYSHMGPSQCGFFRSNLIQR, MAHHHHHHMSTIYNAVDASTLNDRCRTDLLDTVAQLGRHCETLPKKAVTTADAPLPSCTFNTTVSRSQKEINCSNEAALDKYIEEKGATRWRTTQALASTYFKDHKPKFHGALRTQDCFRDTRDITQLSSKEKDFVHRYAEAKMKKSIPREESDDVAKKVATEAYTEAFRKFKGRDPTEKELLEVERLYFAYADDGAVGVVQKPHFHGPHMHVSICNRKYVTCPNQVYRASLPAVRNARSRFPGPIPVWTSTKNLHAVVSNDTYRPGVHNVSKFGETSSK, MAHHHHHHMTAKSPCLDILPFIFREEQISNRIQTFPTETMKKAYLELKGYFEQYKIYAEKLINFSGSMNDENQRKEKLIIKLRCEYYAVIFSQASKLLHEYINFRNRLILELAINVNGLINSIHPNIIQRLNEDEQKELQKYCENIRSERTRSKLQNKFTVCFLNDLIIEDLNYEGVQKDMKGRNVFYSAGLKVSVFEDKALDLQKCEWAKILRD, MAHHHHHHMTFPSVQSSVHLYSNVVELAIRYTDLCAFCGRKAHEGENGSTKGDRAETSGSWHFHLARSKEPIAVSCLHAIMQRTNILGGRVNLFFTFERVPPFGGHKSRAVIQLASFHYSKNMRLCLNVAYLPQEEVRLKTVRAHVDSDCNVLEVACWRVFVFLGRST, MAHHHHHHMTSQPHVTMSKNTGSVTEQHKRMSHTTGDNNEEEKHILAGRYKTKLCKNYVARGECPYDVRCMFAHGEDELRTSDDNIRDGLVTEEAIKDFQRQQNQAKRRAAFAAAREHNNHDHSHSHNHSHSHNHTVRPVPHGNVYEMEENVESNEVYRNRNRHHNLRLHPPQEPVSIPQPQQQQQQEQQFQLQSVVAQYYTHNPYVFDLIPAAARLFPVYQEVVEEGCWYEEEPVPAQEDYYFPSSDMMMPLVPSLVTQQYLPYPHQQCSKQLETVASASTYSCEEAMYGHSESSASSAYRSVARCTAAELPSNSDIPAMVMEP, MAHHHHHHMVFYSFVLVMKPRQRRFTSQALREIGVAVYSNGGLIRSITNEGIMRPYSRFRDADNTPLTYARYIILQLDMGEEEMGKVDKIIREHQDVLMALKLNNLERPVGIRSGNKELQAAYFPLDTFTRLEEEINWSPQTSADIYTQLEMNWKEFSRTRWSSFLRN, MAHHHHHHMVGLRTRNVIDPIHGGVGRVIGGKGVSIDRNDGSIISDNEGENDRNGGDIPKAEGEEGRDAQDKGNAKVVMPIDEANQSNIANICSCDFTERLNFIPQEKTKVVCNLNPHHGEEVKIWVNKEYEVKCFQNSRVYCPSKDNIVNNTDITTYSPKLKYNISDVVHRDREVKEYHLQIDKDASDILLFCSIKPKQVSELLEGEVKINLKREISEEYSIPDEHGIHACNFSKGNLDISPSAGFYYKNDRSVSCIYLVIPNKLFLIKLPKLDIVTNQLLPSLVNCLSEHSFINFNLKHVEEGDESISLHLSFGDFKRTFNLSCAFDLSEYVIEPCLLGKKGIVTFYFNA, MAHHHHHHMVTFRCDCLHNEAEGALCRWKGKWHPANCTNTPVLLIGKGQPQGYFKLKLKVYAIFHGNGHRLHTLNCTDEDSSEDSLNATTCSDSDWRSITQQVPTEETVEQSAASEQGPSDTTKGSGSDDEETASSAPKSEGEEQEASGEGEETPKEDQQSPGEKRGTAGEKRGASGKKDGAGGEGLTRKEPEKGGATQGGKHTHPRGESSPEKGTVNDHQRDAAEDGTTTNGKQDADPGREEPVRGRDDTVAAGAGIVSNTGRIDRKPENKKGNNVRYGAIQNLLVAIVCFITG, MAHHHHHHMWWTAARRRLYYPNQIFLSKDNRRINNSWLPRRLLLVRHGESEANVNREVYSNTPDWKIPLTALGREQAYDCGKRLRNIIQGEKLYIYYSPYARTRQTVSEIRRSFDESQIQGEREDERLREQEMGNYQPLQDMDATWAARNAFGRLYYRFPFGESGADVGDRVSGFFDSLLRESIGLTVPNMNECVVQGAREGLGALDLGPWSTGVDNVPGSSCACSVSTSQGGPVASSTGSESAPPSWTPSFHQATTSSAGLRRTIRRTSPHRPLPLSDFGEAETRGVPPLNDHCASAGEEQNVLIIAHGLLIRLFIGRWFRVPMEVFETMCNPPNCAIIVLERDDRLGRLVMTDMSKSLFGSDPLLQMMRFDGREDTHWYREKFLGIVDPTKAAEEAVVEDDDENHYSMSNAHNSGVGAPAPPPRQRKPSTSTATRASPSTSASASGTSASSAESADVSASTAEHAALAARDRATQPKCPPPCMDCTPNRDYMTFSRRR, MAHHHHHHSLKEAEVLKYEAFTSSPGKGNPAGVVLQGDDYTEDEMQIIAERAGYSETSFIRKSESADLELRYFTPGHEMNLCGHATVASLYALCEKGMLESGKTYSIQTKAGILPVKISEKDGRIHITLEQASPQFKPFTGDRKKLADALGITDEDFHEDLPIVFGSTGIWTAIVPLKSLEASKKMVPDNKQFPEVLVDLPKASVHPFTFETVHPDSDLHGRHFSSPYSGTIEDPVTGTASGVMGAYMKHYGNAEQHKFIIEQGQEIGKDGKVEIEMNEAGGHVKVNMTGTAVYSETRILKIEG

Soluble on expression in E. coli, soluble:
MAHHHHHHMSRCGRKLDMSSGYWLPRRLLLVRHGESEANVDRALYSKVPDWKIPLTARGREQAFECGRRLRKIIKNEKLYVYYSPYTRTRQTLTEVRKSLLPSQVQGEREDERLREQEIGNFQPLDKMDEMWAERSEFGRSYYRFPDGESSVDVGDRVSKFFDSLFRERVELNYLSARKQMITGSSNDVGPASFTVPDDDDHNVVIISHGLLIRLFVGRWYSAPMEVFETMKNPPNCGIVVLERREAGRLVMTDTSKKLFGSDPLLEMMKFDGKDNVQLFRHLFAEGGYSFSAGEGTDR, MAHHHHHHMSWAALVKSIKPEEATNFTAKPRVTVFAVDPSQNDAERQLQNPQHETAEVKLPSFSKGLLILDANAIIKGMDNFVSTADALVTTPQVIAEIKDRASRELMERLPHKVTVLDPTPEAVAAVVACAERTGDFGAMSRTDIRLCALALECCKVGGFLGEPIEPRPPQVNPRNDDKVQVMTEEMGEDGSNDERAKSETAHAQGASSSAMPGWGDWSDEAKETDGEGGAGAAEEDDGEGEWITPENIQDVQSGTRGAGRAFEAGMACVTSDYAMQNTLMHLGVPIVGTNGIHIRELRLWMMRCTACFTLVVDTTRQFCPECGSGDTLRRVNYVVNDQGEKKLYINFRKRISTRGTIYNLPRPRGGTHGTNRNLVLREDQLAHVIRGTTSSKVKAHQVMQNDDGALATFGEAPKLKKKNLADPRAYSSYHRYNVNEKKKVRAAHRK, MAHHHHHHSLCPCPHSQAQGETDGEAEWHNAALDFTHAMSYGDYLKLDKVLDAQFPLSPDHNEMLFIIQHQTSELWMKLMLHELRAAREHVKSGKLGPALKMLARVSRIFDQLVHAWAVLATMTPTEYNTIRPYLGQSSGFQSYQYREIEFILGNKNATLLKPHAHRAELLAALEQALHTPSLYDEAIRLMAAQGLPVSQERLARDAAAGTCYEASVEAAWRQVYQAPERYWDLYQLAEKLIDLEDSFRQWRFRHVTTVERIIGFKPGTGGTEGVGYLRSMLDTILFPELWRLRSNEG
